Measurements as given in patent US20250304624A1 (published 2025).
Positions of bridges follow the written chain, without caps; N, C: chain ends. Non-standard residues stand in square brackets, D forms with d. Groups on a side chain read outwards from the residue. *: point of attachment. PEG12 = NCCOCCOCCOCCOCCOCCOCCOCCOCCOCCOCCOCCOCCC(=O)O; Dip = N[C@H](C(=O)O)C(c1ccccc1)c1ccccc1; Palmitoyl = CCCCCCCCCCCCCCCC(=O)*; Isovaleryl = CC(C)CC(=O)*

Target: T1, human ferroportin (SLC40A1) fused in frame with GFP, stably expressed in HEK293 cells (human, UniProt Q9NP59 1-571)
T1 sequence (looked up): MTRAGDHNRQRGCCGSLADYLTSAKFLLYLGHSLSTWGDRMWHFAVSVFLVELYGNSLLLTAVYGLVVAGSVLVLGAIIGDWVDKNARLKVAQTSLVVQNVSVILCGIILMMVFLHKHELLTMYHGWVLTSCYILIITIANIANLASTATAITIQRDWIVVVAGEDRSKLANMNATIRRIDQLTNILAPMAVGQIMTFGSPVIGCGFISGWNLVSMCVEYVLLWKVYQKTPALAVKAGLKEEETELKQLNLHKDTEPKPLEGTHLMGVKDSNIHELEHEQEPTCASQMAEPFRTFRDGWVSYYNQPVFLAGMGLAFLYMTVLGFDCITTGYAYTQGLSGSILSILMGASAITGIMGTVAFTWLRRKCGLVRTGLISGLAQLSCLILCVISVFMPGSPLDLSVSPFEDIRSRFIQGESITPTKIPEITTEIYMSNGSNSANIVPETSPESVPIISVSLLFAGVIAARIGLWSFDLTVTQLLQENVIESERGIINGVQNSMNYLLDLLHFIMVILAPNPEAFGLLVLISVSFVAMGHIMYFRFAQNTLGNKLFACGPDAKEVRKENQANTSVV
Assay: cell-based or functional assay

FPN IC50: 0.069 µM
Binder: Isovaleryl-DIH[Dip]PCI[dK]FK([PEG12-Palmitoyl])[dK]C-NH2 (disulfide 6-12 (inferred)) [Compd ID 130]
